From the supplement of paper PMC9112550, “Optimization of the antimicrobial peptide Bac7 by deep mutational scanning” (BMC Biology, 2022)

test system: Escherichia coli TOP10; assay: shrunken log2 fold change of peptide-encoding DNA abundance (4.5 h post-induction vs induction); higher = less antimicrobial activity (less host growth inhibition); conditions: time post-induction: 4.5 h; library: site-saturation at positions 5, 18, 19, 20
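Also: peptides expressed intracellularly from a pBAD plasmid library in pooled LB shake-flask culture, induced with 0.3% L-arabinose, DNA abundance read by NGS, three biological replicates, DESeq2 with apeglm shrinkage.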

Row | Sequence | shrunken log2 fold change
1 | RRIRSRPPRLPRPRPRPAFQPRP | -0.0696
2 | RRIRLRPPRLPRPRPRPEKFPRP | -0.175
3 | RRIRHRPPRLPRPRPRPMYTPRP | 0.588
4 | RRIRWRPPRLPRPRPRPGFLPRP | 0.144
5 | RRIRERPPRLPRPRPRPTPTPRP | 0.174
6 | RRIRMRPPRLPRPRPRPSVDPRP | 0.508
7 | RRIRQRPPRLPRPRPRPPQAPRP | 0.718
8 | RRIRLRPPRLPRPRPRPWEPPRP | 0.0843
9 | RRIRSRPPRLPRPRPRPSACPRP | -0.0945
10 | RRIRQRPPRLPRPRPRPMYAPRP | 0.151
11 | RRIRSRPPRLPRPRPRPLKIPRP | -0.309
12 | RRIRERPPRLPRPRPRPMHPPRP | 0.464
13 | RRIRLRPPRLPRPRPRPVVQPRP | 0.0325
14 | RRIRPRPPRLPRPRPRPFVVPRP | -0.233
15 | RRIRYRPPRLPRPRPRPLQIPRP | -0.51
16 | RRIRYRPPRLPRPRPRPPWLPRP | 1.46
17 | RRIRCRPPRLPRPRPRPNFRPRP | 0.0821
18 | RRIRCRPPRLPRPRPRPYLTPRP | -0.459
19 | RRIRDRPPRLPRPRPRPPGKPRP | 0.176
20 | RRIRNRPPRLPRPRPRPTTIPRP | -0.819
21 | RRIRQRPPRLPRPRPRPITIPRP | -0.239
22 | RRIRNRPPRLPRPRPRPLRTPRP | 0.717
23 | RRIRARPPRLPRPRPRPLQCPRP | 0.049
24 | RRIRMRPPRLPRPRPRPMFKPRP | 0.0609
25 | RRIRVRPPRLPRPRPRPRPWPRP | 0.178

Row | Sequence | shrunken log2 fold change
26 | RRIRHRPPRLPRPRPRPTVEPRP | -0.0265
27 | RRIRGRPPRLPRPRPRPNFFPRP | 0.122
28 | RRIRIRPPRLPRPRPRPFNEPRP | -0.331
29 | RRIRHRPPRLPRPRPRPLQYPRP | -0.582
30 | RRIRKRPPRLPRPRPRPPLKPRP | 0.419
31 | RRIRIRPPRLPRPRPRPQMDPRP | -0.258
32 | RRIRGRPPRLPRPRPRPFTDPRP | 0.143
33 | RRIRTRPPRLPRPRPRPCMGPRP | -0.247
34 | RRIRARPPRLPRPRPRPWGFPRP | 0.206
35 | RRIRGRPPRLPRPRPRPHERPRP | 0.878
36 | RRIRIRPPRLPRPRPRPIVSPRP | -0.102
37 | RRIRCRPPRLPRPRPRPAEMPRP | -0.0594
38 | RRIRCRPPRLPRPRPRPAECPRP | -0.223
39 | RRIRGRPPRLPRPRPRPVTYPRP | -0.13
40 | RRIRRRPPRLPRPRPRPVMYPRP | -0.127
41 | RRIRTRPPRLPRPRPRPWQMPRP | -0.0135
42 | RRIRTRPPRLPRPRPRPSWQPRP | -0.073
43 | RRIRARPPRLPRPRPRPGTIPRP | -0.0682
44 | RRIRERPPRLPRPRPRPHYKPRP | -0.901
45 | RRIRSRPPRLPRPRPRPMASPRP | 0.088
46 | RRIRHRPPRLPRPRPRPYELPRP | -0.116
47 | RRIRTRPPRLPRPRPRPKFLPRP | 0.0687
48 | RRIRKRPPRLPRPRPRPIKLPRP | -0.243
49 | RRIRVRPPRLPRPRPRPCEPPRP | 0.137
50 | RRIRYRPPRLPRPRPRPARYPRP | -0.000578

Row | Sequence | shrunken log2 fold change
51 | RRIRGRPPRLPRPRPRPEKIPRP | 0.672
52 | RRIRVRPPRLPRPRPRPCYTPRP | -0.498
53 | RRIRPRPPRLPRPRPRPPKHPRP | 0.499
54 | RRIRWRPPRLPRPRPRPSQPPRP | -0.0613
55 | RRIRFRPPRLPRPRPRPCARPRP | 0.232
56 | RRIRFRPPRLPRPRPRPCEQPRP | -0.00534
57 | RRIRSRPPRLPRPRPRPLIKPRP | -0.258
58 | RRIRERPPRLPRPRPRPNEVPRP | 0.0321
59 | RRIRHRPPRLPRPRPRPMRKPRP | 0.0179
60 | RRIRCRPPRLPRPRPRPWTEPRP | -0.755
61 | RRIRVRPPRLPRPRPRPTTEPRP | 0.14
62 | RRIRERPPRLPRPRPRPKGDPRP | -0.0914
63 | RRIRGRPPRLPRPRPRPGNRPRP | 0.333
64 | RRIRYRPPRLPRPRPRPYSVPRP | -0.0202
65 | RRIRYRPPRLPRPRPRPQPFPRP | 0.00414
66 | RRIRFRPPRLPRPRPRPPAPPRP | 1.07
67 | RRIRYRPPRLPRPRPRPGRPPRP | 0.0326
68 | RRIRKRPPRLPRPRPRPGRTPRP | 0.223
69 | RRIRSRPPRLPRPRPRPHDDPRP | -0.114
70 | RRIRQRPPRLPRPRPRPASYPRP | -0.121
71 | RRIRGRPPRLPRPRPRPWAEPRP | 2.19
72 | RRIRQRPPRLPRPRPRPFSYPRP | -0.0227
73 | RRIRQRPPRLPRPRPRPHFSPRP | -0.508
74 | RRIRCRPPRLPRPRPRPADIPRP | -0.941
75 | RRIRGRPPRLPRPRPRPGPLPRP | 0.363

Row | Sequence | shrunken log2 fold change
76 | RRIRFRPPRLPRPRPRPYANPRP | -1.28
77 | RRIRRRPPRLPRPRPRPRLRPRP | 0.848
78 | RRIRGRPPRLPRPRPRPRKRPRP | 1.21
79 | RRIRKRPPRLPRPRPRPKTVPRP | 0.355
80 | RRIRCRPPRLPRPRPRPDNCPRP | 0.0206
81 | RRIRTRPPRLPRPRPRPCFLPRP | -0.535
82 | RRIRKRPPRLPRPRPRPTMHPRP | 0.455
83 | RRIRSRPPRLPRPRPRPDDVPRP | 0.14
84 | RRIRSRPPRLPRPRPRPICAPRP | 0.47
85 | RRIRERPPRLPRPRPRPNFTPRP | -0.111
86 | RRIRRRPPRLPRPRPRPADPPRP | 0.403
87 | RRIRPRPPRLPRPRPRPGPRPRP | 0.677
88 | RRIRCRPPRLPRPRPRPKGYPRP | -0.0908
89 | RRIRPRPPRLPRPRPRPAQLPRP | 0.237
90 | RRIRNRPPRLPRPRPRPARYPRP | 0.0763
91 | RRIRIRPPRLPRPRPRPKEYPRP | -0.728
92 | RRIRTRPPRLPRPRPRPYKNPRP | -0.937
93 | RRIRDRPPRLPRPRPRPGPPPRP | 0.733
94 | RRIRLRPPRLPRPRPRPVKFPRP | -0.316
95 | RRIRQRPPRLPRPRPRPKGTPRP | 0.109
96 | RRIRFRPPRLPRPRPRPKHCPRP | -0.0918
97 | RRIRGRPPRLPRPRPRPQQDPRP | 0.357
98 | RRIRSRPPRLPRPRPRPSVSPRP | -0.0446
99 | RRIRLRPPRLPRPRPRPMHNPRP | -0.429
100 | RRIRGRPPRLPRPRPRPHVKPRP | -0.0605

Row | Sequence | shrunken log2 fold change
101 | RRIRARPPRLPRPRPRPYCQPRP | -0.138
102 | RRIRKRPPRLPRPRPRPWSAPRP | 0.0935
103 | RRIRARPPRLPRPRPRPGPGPRP | 1.08
104 | RRIRHRPPRLPRPRPRPHLQPRP | -0.129
105 | RRIRIRPPRLPRPRPRPRPVPRP | 0.371
106 | RRIRWRPPRLPRPRPRPMGTPRP | -0.00133
107 | RRIRVRPPRLPRPRPRPCFSPRP | -0.356
108 | RRIRVRPPRLPRPRPRPMDPPRP | -0.56
109 | RRIRNRPPRLPRPRPRPMNRPRP | -0.00285
110 | RRIRVRPPRLPRPRPRPGLFPRP | 0.0268
111 | RRIRGRPPRLPRPRPRPWTNPRP | 0.0419
112 | RRIRLRPPRLPRPRPRPWNMPRP | -0.31
113 | RRIRGRPPRLPRPRPRPHAMPRP | 0.171
114 | RRIRLRPPRLPRPRPRPFAYPRP | -0.163
115 | RRIRFRPPRLPRPRPRPCYKPRP | -0.228
116 | RRIRTRPPRLPRPRPRPDPQPRP | -0.0945
117 | RRIRERPPRLPRPRPRPEMIPRP | -0.0286
118 | RRIRERPPRLPRPRPRPPFRPRP | 0.173
119 | RRIRMRPPRLPRPRPRPPNQPRP | 0.42
120 | RRIRDRPPRLPRPRPRPLSIPRP | -0.0668
121 | RRIRMRPPRLPRPRPRPWYDPRP | 0.0249
122 | RRIRHRPPRLPRPRPRPGYHPRP | -0.126
123 | RRIRCRPPRLPRPRPRPQGCPRP | -0.0977
124 | RRIRPRPPRLPRPRPRPPFLPRP | 0.188
125 | RRIRYRPPRLPRPRPRPQTVPRP | -0.261

Row | Sequence | shrunken log2 fold change
126 | RRIRRRPPRLPRPRPRPTPSPRP | 0.772
127 | RRIRGRPPRLPRPRPRPYTDPRP | -0.417
128 | RRIRDRPPRLPRPRPRPKFGPRP | 0.0019
129 | RRIRGRPPRLPRPRPRPCYFPRP | -0.0409
130 | RRIRCRPPRLPRPRPRPRECPRP | -0.146
131 | RRIRARPPRLPRPRPRPNMSPRP | 0.12
132 | RRIRGRPPRLPRPRPRPMILPRP | -0.0452
133 | RRIRTRPPRLPRPRPRPDFDPRP | -0.375
134 | RRIRERPPRLPRPRPRPFCAPRP | 0.548
135 | RRIRNRPPRLPRPRPRPCDIPRP | -0.0262
136 | RRIRIRPPRLPRPRPRPVLTPRP | -0.0413
137 | RRIRKRPPRLPRPRPRPDHRPRP | 0.139
138 | RRIRSRPPRLPRPRPRPNNCPRP | -0.186
139 | RRIRFRPPRLPRPRPRPIQCPRP | -0.105
140 | RRIRMRPPRLPRPRPRPQGFPRP | -0.00865
141 | RRIRSRPPRLPRPRPRPQGQPRP | -0.154
142 | RRIRNRPPRLPRPRPRPHVPPRP | -0.528
143 | RRIRMRPPRLPRPRPRPLTMPRP | 0.24
144 | RRIRRRPPRLPRPRPRPRKFPRP | 0.491
145 | RRIRHRPPRLPRPRPRPMNQPRP | -0.221
146 | RRIRTRPPRLPRPRPRPYKQPRP | -0.0217
147 | RRIRKRPPRLPRPRPRPCDLPRP | 0.209
148 | RRIRWRPPRLPRPRPRPSLVPRP | -0.0104
149 | RRIRLRPPRLPRPRPRPHFKPRP | -0.367
150 | RRIRSRPPRLPRPRPRPNTMPRP | -0.154
